Target: IL-4 receptor α (IL-4Rα) (UniProt P24394)
Sequence of UniProt P24394 (P24394 26-825): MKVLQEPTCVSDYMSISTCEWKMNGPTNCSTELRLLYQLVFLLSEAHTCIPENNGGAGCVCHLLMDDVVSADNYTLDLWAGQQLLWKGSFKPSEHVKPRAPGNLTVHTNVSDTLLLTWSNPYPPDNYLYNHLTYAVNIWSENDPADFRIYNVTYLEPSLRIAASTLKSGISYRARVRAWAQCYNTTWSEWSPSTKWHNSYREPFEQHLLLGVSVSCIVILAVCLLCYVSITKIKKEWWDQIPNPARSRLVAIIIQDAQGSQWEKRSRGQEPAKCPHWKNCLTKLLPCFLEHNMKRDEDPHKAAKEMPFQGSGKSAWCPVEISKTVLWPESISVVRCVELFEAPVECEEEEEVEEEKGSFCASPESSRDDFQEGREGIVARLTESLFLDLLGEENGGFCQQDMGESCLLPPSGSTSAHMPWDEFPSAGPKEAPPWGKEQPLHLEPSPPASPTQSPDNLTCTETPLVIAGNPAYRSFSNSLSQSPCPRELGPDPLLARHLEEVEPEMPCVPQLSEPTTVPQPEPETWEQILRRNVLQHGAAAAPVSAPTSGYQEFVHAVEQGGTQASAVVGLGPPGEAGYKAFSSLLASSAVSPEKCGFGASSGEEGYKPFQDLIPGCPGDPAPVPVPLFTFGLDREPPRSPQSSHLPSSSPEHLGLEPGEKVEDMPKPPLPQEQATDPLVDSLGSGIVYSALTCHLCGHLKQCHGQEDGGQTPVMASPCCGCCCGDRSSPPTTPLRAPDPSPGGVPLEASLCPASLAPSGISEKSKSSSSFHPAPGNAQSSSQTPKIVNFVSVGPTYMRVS

Wildtype human IL-4 (from UniProt P05112 25-153) (ligand)
TF-1 cell proliferation, dose dependency for wild-type human IL-4 (EC50): 10 to 20 pM

From article PMC3558457
